B1: L92AY93I: mutated TriA variant of SEQ ID NO: 2 (protein)
chain: MQTLSIQHGTLVTMDQYRRVLGDSWVHVQDGRIVALGVHAESVPPPADRVIDARGKVVLPGFINAHTHVNQILLRGGPSHGRQLYDWLFNVAIPGQKAMRPEDVAVAVRLYCAEAVRSGITTINDNADSAIYPGNIEAAMAVYGEVGVRVVYARMFFDRMDGRIQGYVDALKARSPQVELCSIMEETAVAKDRITALSDQYHGTAGGRISVWPAPAITPAVTVEGMRWAQAFARDRAVMWTLHMAESDHDERLHWMSPAEYMECYGLLDERLQVAHCVYFDRKDVRLLHRHNVKVASQVVSNAYLGSGVAPVPEMVERGMAVGIGTDDGNCNDSVNMIGDMKFMAHIHRAVHRDADVLTPEKILEMATIDGARSLGMDHEIGSIETGKRADLILLDLRHPQTTPHHHLAATIVFQAYGNEVDTVLIDGNVVMENRRLSFLPPERELAFLEEAQSRATAILQRANMVANPAWRSL
modifications: Pseudomonas
B2: L92AY93LM155TF157L: mutated TriA variant of SEQ ID NO: 2 (protein)
chain: MQTLSIQHGTLVTMDQYRRVLGDSWVHVQDGRIVALGVHAESVPPPADRVIDARGKVVLPGFINAHTHVNQILLRGGPSHGRQLYDWLFNVALPGQKAMRPEDVAVAVRLYCAEAVRSGITTINDNADSAIYPGNIEAAMAVYGEVGVRVVYARTFLDRMDGRIQGYVDALKARSPQVELCSIMEETAVAKDRITALSDQYHGTAGGRISVWPAPAITPAVTVEGMRWAQAFARDRAVMWTLHMAESDHDERLHWMSPAEYMECYGLLDERLQVAHCVYFDRKDVRLLHRHNVKVASQVVSNAYLGSGVAPVPEMVERGMAVGIGTDDGNCNDSVNMIGDMKFMAHIHRAVHRDADVLTPEKILEMATIDGARSLGMDHEIGSIETGKRADLILLDLRHPQTTPHHHLAATIVFQAYGNEVDTVLIDGNVVMENRRLSFLPPERELAFLEEAQSRATAILQRANMVANPAWRSL
modifications: Pseudomonas
B3: W87FL92AY93LF157L: mutated TriA variant of SEQ ID NO: 2 (protein)
chain: MQTLSIQHGTLVTMDQYRRVLGDSWVHVQDGRIVALGVHAESVPPPADRVIDARGKVVLPGFINAHTHVNQILLRGGPSHGRQLYDFLFNVALPGQKAMRPEDVAVAVRLYCAEAVRSGITTINDNADSAIYPGNIEAAMAVYGEVGVRVVYARMFLDRMDGRIQGYVDALKARSPQVELCSIMEETAVAKDRITALSDQYHGTAGGRISVWPAPAITPAVTVEGMRWAQAFARDRAVMWTLHMAESDHDERLHWMSPAEYMECYGLLDERLQVAHCVYFDRKDVRLLHRHNVKVASQVVSNAYLGSGVAPVPEMVERGMAVGIGTDDGNCNDSVNMIGDMKFMAHIHRAVHRDADVLTPEKILEMATIDGARSLGMDHEIGSIETGKRADLILLDLRHPQTTPHHHLAATIVFQAYGNEVDTVLIDGNVVMENRRLSFLPPERELAFLEEAQSRATAILQRANMVANPAWRSL
modifications: Pseudomonas
B4: L88AL92AY93LF157L: mutated TriA variant of SEQ ID NO: 2 (protein)
chain: MQTLSIQHGTLVTMDQYRRVLGDSWVHVQDGRIVALGVHAESVPPPADRVIDARGKVVLPGFINAHTHVNQILLRGGPSHGRQLYDWAFNVALPGQKAMRPEDVAVAVRLYCAEAVRSGITTINDNADSAIYPGNIEAAMAVYGEVGVRVVYARMFLDRMDGRIQGYVDALKARSPQVELCSIMEETAVAKDRITALSDQYHGTAGGRISVWPAPAITPAVTVEGMRWAQAFARDRAVMWTLHMAESDHDERLHWMSPAEYMECYGLLDERLQVAHCVYFDRKDVRLLHRHNVKVASQVVSNAYLGSGVAPVPEMVERGMAVGIGTDDGNCNDSVNMIGDMKFMAHIHRAVHRDADVLTPEKILEMATIDGARSLGMDHEIGSIETGKRADLILLDLRHPQTTPHHHLAATIVFQAYGNEVDTVLIDGNVVMENRRLSFLPPERELAFLEEAQSRATAILQRANMVANPAWRSL
modifications: Pseudomonas
B5: L92AY93VM155TF157L: mutated TriA variant of SEQ ID NO: 2 (protein)
chain: MQTLSIQHGTLVTMDQYRRVLGDSWVHVQDGRIVALGVHAESVPPPADRVIDARGKVVLPGFINAHTHVNQILLRGGPSHGRQLYDWLFNVAVPGQKAMRPEDVAVAVRLYCAEAVRSGITTINDNADSAIYPGNIEAAMAVYGEVGVRVVYARTFLDRMDGRIQGYVDALKARSPQVELCSIMEETAVAKDRITALSDQYHGTAGGRISVWPAPAITPAVTVEGMRWAQAFARDRAVMWTLHMAESDHDERLHWMSPAEYMECYGLLDERLQVAHCVYFDRKDVRLLHRHNVKVASQVVSNAYLGSGVAPVPEMVERGMAVGIGTDDGNCNDSVNMIGDMKFMAHIHRAVHRDADVLTPEKILEMATIDGARSLGMDHEIGSIETGKRADLILLDLRHPQTTPHHHLAATIVFQAYGNEVDTVLIDGNVVMENRRLSFLPPERELAFLEEAQSRATAILQRANMVANPAWRSL
modifications: Pseudomonas
B6: L92AY93LF157L: mutated TriA variant of SEQ ID NO: 2 (protein)
chain: MQTLSIQHGTLVTMDQYRRVLGDSWVHVQDGRIVALGVHAESVPPPADRVIDARGKVVLPGFINAHTHVNQILLRGGPSHGRQLYDWLFNVALPGQKAMRPEDVAVAVRLYCAEAVRSGITTINDNADSAIYPGNIEAAMAVYGEVGVRVVYARMFLDRMDGRIQGYVDALKARSPQVELCSIMEETAVAKDRITALSDQYHGTAGGRISVWPAPAITPAVTVEGMRWAQAFARDRAVMWTLHMAESDHDERLHWMSPAEYMECYGLLDERLQVAHCVYFDRKDVRLLHRHNVKVASQVVSNAYLGSGVAPVPEMVERGMAVGIGTDDGNCNDSVNMIGDMKFMAHIHRAVHRDADVLTPEKILEMATIDGARSLGMDHEIGSIETGKRADLILLDLRHPQTTPHHHLAATIVFQAYGNEVDTVLIDGNVVMENRRLSFLPPERELAFLEEAQSRATAILQRANMVANPAWRSL
modifications: Pseudomonas
B7: W87HL92AY93LF157L: mutated TriA variant of SEQ ID NO: 2 (protein)
chain: MQTLSIQHGTLVTMDQYRRVLGDSWVHVQDGRIVALGVHAESVPPPADRVIDARGKVVLPGFINAHTHVNQILLRGGPSHGRQLYDHLFNVALPGQKAMRPEDVAVAVRLYCAEAVRSGITTINDNADSAIYPGNIEAAMAVYGEVGVRVVYARMFLDRMDGRIQGYVDALKARSPQVELCSIMEETAVAKDRITALSDQYHGTAGGRISVWPAPAITPAVTVEGMRWAQAFARDRAVMWTLHMAESDHDERLHWMSPAEYMECYGLLDERLQVAHCVYFDRKDVRLLHRHNVKVASQVVSNAYLGSGVAPVPEMVERGMAVGIGTDDGNCNDSVNMIGDMKFMAHIHRAVHRDADVLTPEKILEMATIDGARSLGMDHEIGSIETGKRADLILLDLRHPQTTPHHHLAATIVFQAYGNEVDTVLIDGNVVMENRRLSFLPPERELAFLEEAQSRATAILQRANMVANPAWRSL
modifications: Pseudomonas

Type: biochemical
Conditions: pH 7.2
In short: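 Expression: BL21(DE3) Gold, pET24d N-His, pGro7, 0.1 mM IPTG, 25° C, 20 h. Reaction: 25 mM Na phosphate pH 7.2, substrate 1 nM to 10 nM, 30° C. Analysis: UPLC-HR-MS; % degradation vs empty vector.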

In order of rising “Degradation in % of 6-cyclopentyl-N4-(2,3,4,5,6-pentafluorophenyl)-1,3,5-triazine-2,4-diamine” value:
1. B7  18%
2. B1  75%
3. B6  97%
4. B2  99%
5. B3  99%
6. B4  99%
7. B5  99%

In order of falling “Degradation in % of Melamine” value:
1. B6  43%
2. B2  41%
3. B3  1%
4. B4  1%
5. B1  0%
6. B5  0%
7. B7  0%

— patent US11499162B2, “Plants having increased tolerance to herbicides” (BASF SE, priority 2016, dated 2022)
